{"source": "patent US5942405A", "about": "“Therapeutic and screening methods using C3a receptor and C3a” (priority 1997, dated 1999)", "molecules": {"B1": {"name": "rC5a: Human rC5a was expressed in E. coli and purified to homogeneity (protein, UniProt P01031 678-751, looked up)", "C5a anaphylatoxin": "TLQKKIEEIAAKYKHSVVKKCCYDGACVNNDETCEQRAARISLGPRCIKAFTECCVVASQLRANISHKDMQLGR", "modifications": "C5a anaphylatoxin recombinant, E. coli", "notes": "Human rC5a was expressed in E. coli and purified to homogeneity"}}, "target": "T1, C3a Receptor (Homo sapiens, UniProt Q16581)", "T1 sequence (Q16581 1-482 F151C)": "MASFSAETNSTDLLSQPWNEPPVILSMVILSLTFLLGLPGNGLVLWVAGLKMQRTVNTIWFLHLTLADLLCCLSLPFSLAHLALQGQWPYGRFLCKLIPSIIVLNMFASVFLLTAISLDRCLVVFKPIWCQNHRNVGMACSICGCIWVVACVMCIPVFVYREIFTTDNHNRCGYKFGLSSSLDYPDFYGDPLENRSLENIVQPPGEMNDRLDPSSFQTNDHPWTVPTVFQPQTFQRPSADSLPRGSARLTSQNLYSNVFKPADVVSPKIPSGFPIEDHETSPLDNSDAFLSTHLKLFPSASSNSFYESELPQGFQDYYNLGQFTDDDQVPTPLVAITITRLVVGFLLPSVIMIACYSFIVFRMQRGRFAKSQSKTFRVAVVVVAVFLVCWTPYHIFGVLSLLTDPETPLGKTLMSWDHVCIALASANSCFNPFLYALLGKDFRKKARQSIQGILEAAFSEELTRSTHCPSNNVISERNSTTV", "test": "Electrophysiological response (Ca2+ mediated chloride currents, two electrode voltage clamp) of Xenopus oocytes injected with C3a Receptor cRNA", "format": "cell-based", "set-up": "cDNA encoding a complete orphan GPCR of 482 amino acids; expressed in transfected cells; host or cells: Xenopus laevis oocytes microinjected with cRNA, with or without U937 total RNA", "settings": "for electrophysiological response of oocytes expressing C3a Receptor: oocytes co-injected with C3a Receptor cRNA (10 ng) and U937 RNA (25 ng), ligands 10 nM; for electrophysiological response of oocytes injected with C3a Receptor cRNA or U937 RNA alone: 10 nM ligand", "description": "(A) Electrophysiological response of Xenopus oocytes injected with cRNA for C3a Receptor (10 ng), total U937 RNA (25 ng), or a mixture of C3a Receptor (10 ng) and U937 RNA (25 ng) to 10 nM rC5a, 10 nM C3a analogue peptide, 10 nM platelet activating factor (PAF), 10 nM fMetLeuPhe. Inset, represents typical response of oocytes co-injected with C3a Receptor cRNA+U937 RNA to 10 nM C3a. (B) Electrophysiological response of oocytes injected with C5a-R cRNA (10 ng), U937 RNA (25 ng) or a mixture of C5a-R and U937 RNA, to 10 nM rC5a or 10 nM C3a analogue peptide. […] Calcium mobilization by Fura 2 loaded cells expressing C5a receptor (FIGS. 4A & 4C) or C3a Receptor (FIGS. 4B & 4D) in response to rC5a (10 nM, FIG. 4A or 100 nM, FIG. 4B) or C3a analogue peptide (1 uM, FIGS. 4C & 4D).\nCapped cRNA transcripts were generated from linearized C3a Receptor and C5a-R plasmid DNA as previously described (Kumar, C. S., et al (1989) J. Biol. Chem. 264, 17939-17946) and suspended in sterile water at a concentration of 0.2 μg/μl. Ovarian lobes were surgically removed from adult female Xenopus laevis frogs and defolliculated Stage V oocytes were harvested by manual dissection (Smith, L. D., et al (1991) Methods in Cell Biology, 36, 45-54. Edited by B. K. Kay and H. B. Peng, Academic Press Inc., New York.). Oocytes were microinjected with C3a Receptor or C5a-R cRNA transcripts (10 ng/oocyte) with or without U937 total RNA (25 ng/oocyte) in a 50 nl volume using a Drummond microinjection apparatus and maintained in modified Barth's saline (Power, C. A., et al (1995) J. Biol. Chem., 270,19495-19500 ) at 18° C. Electrophysiological recordings from an average of 10 oocytes were made 48 h later at room temperature using the two electrode voltage clamp (Warner Instruments) technique. Membrane potentials were routinely clamped at -60 mV. Results represent average response determined in three separate experiments.\nThe chemotactic receptors for C5a and the fMLP-R have previously been functionally expressed in Xenopus laevis oocytes (Kroll, B., et al (1991) FEBS Lett. 291, 208-210; Murphy, P. M. & McDermott, D. (1991) J Biol. Chem. 266, 12560-12567; Murphy, P. M., Gallin, E. K., and Tiffany, H. L. (1990) J Immunol. 145, 2227-2234; Schultz, P., et al (1992) Cellular Signalling 4, 153-161) and, unlike all other GPCRs tested in this system, injection of cRNA for the cloned chemotactic receptors alone is insufficient to stimulate signal transduction in response to ligand binding (Kroll, B., et al (1991) FEBS Lett. 291, 208-210; Murphy, P. M. & McDermott, D. (1991) J Biol. Chem. 266, 12560-12567). Functional expression of both of these chemotactic receptors, as monitored by induction of Ca^2+ mediated chloride currents, requires the co-injection of a complimentary human factor which can be supplied by total RNA from myeloid or liver cells (Kroll, B., et al (1991) FEBS Lett. 291, 208-210; Murphy, P. M. & McDermott, D. (1991) J Biol. Chem. 266, 12560-12567). The co-factor is required for receptor-mediated signal transduction but not for expression of the C5a-R or fMLF-R on the surface of the oocytes (Murphy, P. M., et al (1990) J Immunol. 145, 2227-2234). […] Xenopus oocytes were used to functionally characterize C3a Receptor. […] Like the C5a-R and the fMLF-R, the response was dependent on the co-injection of a cofactor present in total HL-60 or U937 RNA. […] (FIG. 3B). Both the C5a-R as well as C3a Receptor elicited in oocytes a promiscuous response to the two anaphylatoxins.", "data": [{"molecule": "C3a: C3a was purchased from Advanced Research Technologies, San Diego; anaphylatoxin; radioiodinated for binding", "values": [{"measurement": "electrophysiological response of oocytes expressing C3a Receptor", "value": "respond"}, {"measurement": "electrophysiological response of oocytes expressing C3a Receptor", "setting": "listed as native ligand", "value": "elicited similar responses"}]}, {"molecule": "WWGKKYRASKLGLAR [C3a analogue synthetic peptide, reference compound]", "values": [{"measurement": "electrophysiological response of oocytes injected with C3a Receptor cRNA or U937 RNA alone", "value": "did not elicit any response"}, {"measurement": "electrophysiological response of oocytes expressing C3a Receptor", "value": "respond"}, {"measurement": "electrophysiological response of oocytes expressing C3a Receptor", "setting": "listed as C3a carboxy-terminal analog synthetic peptide", "value": "elicited an electrophysiological response"}]}, {"molecule": "B1", "values": [{"measurement": "electrophysiological response of oocytes injected with C3a Receptor cRNA or U937 RNA alone", "value": "did not elicit any response"}, {"measurement": "electrophysiological response of oocytes expressing C3a Receptor", "setting": "listed as C5a", "value": "respond"}]}]}
